Source: patent US20200216522A1 (DENALI THERAPEUTICS, published 2020)

How the values were obtained:
Experiment in all cases: peptide array
[1] = molecular target: T1, Peptide_010 (human)
T1 peptide: SPLQTPTEDGSEEPG
Protocol: (§1) Chimeric IgG antibodies were diluted to a concentration of 5 μg/mL in 3% bovine serum albumin in Tris-buffered saline (10 mM Tris, pH 7.5, 150 mM NaCl) supplemented with 0.05% Tween®20 (3% BSA-TBST). Diluted antibodies were allowed to bind to peptides printed onto slides for 2 hours at room temperature as described in the PepStar™ user manual (JPT Technologies). Following extensive washing (5×5 minutes with TBST), slides were incubated with secondary antibodies goat anti-human IgG, Alexa Fluor 568 conjugate, 1 μg/mL in 3% BSA-TBST) for 1 hour at room temperature. After extensive washing, (5×5 minutes with TBST, then 5×5 minutes with ultrapure water), slides were dried overnight and imaged using an Opera Phenix™ system in the 568 nm channel. Images were aligned to peptide array definition files using Galviewer software obtained from JPT Technologies and ImageJ software with control human IgG serving as landmarks.
(§2) Full-length human Tau (encoded by the microtubule-associated protein Tau isoform 2 gene (MAPT), amino acid sequence NCBI Reference Sequence No. NP_005901.2, SEQ ID NO: 1, variant designation “2N4R”) was divided into 15 amino acid peptides, offset by 5 amino acids (overlapping by 10 amino acids). Peptides were synthesized and covalently attached to silica slides in triplicate with a spot size of 0.5 mm (obtained from JPT Technologies, Berlin, Germany). Antibodies muIgG were diluted to a concentration of 30 μg/mL in 3% bovine serum albumin in Tris-buffered saline (10 mM Tris, pH 7.5, 150 mM NaCl) supplemented with 0.05% Tween® 20 (3% BSA-TBST). Diluted antibodies were allowed to bind to peptides printed onto slides for 2 hours at room temperature as described in the Pepstar™ user manual (JPT Technologies). Following extensive washing (5×5 min TBST), slides were incubated with secondary antibodies (donkey anti-mouse IgG, Alexafluor 647 conjugate, 5 μg/mL in 3% BSA-TBST) for 1 hour at room temperature. After extensive washing, (5×5 minutes TBST, 5×5 minutes ultrapure water), slides were dried under a stream of nitrogen and imaged on the Opera Phenix in the 647 nm channel. Images were aligned to peptide array definition file using Galviewer software obtained from JPT Technologies and ImageJ software with control mouse IgG serving as landmarks.

[2] = molecular target: T2, Peptide_009 (human)
T2 peptide: AGLKESPLQTPTEDG
Protocol: as §1, §2

[3] = molecular target: T3, Peptide_008 (human)
T3 peptide: EGDTDAGLKESPLQT
Protocol: as §1, §2

[4] = molecular target: T4, Peptide_006 (human)
T4 peptide: QGGYTMHQDQEGDTD
Protocol: as §1, §2

[5] = molecular target: T5, Peptide_003 (human)
T5 peptide: MEDHAGTYGLGDRKD
Protocol: as §1, §2

[6] = molecular target: T6, Peptide_022 (human)
T6 peptide: AGIGDTPSLEDEAAG
Protocol: as §1, §2

[7] = molecular target: T7, Peptide_019 (human)
T7 peptide: AQPHTEIPEGTTAEE
Protocol: as §1, §2

[8] = molecular target: T8, Peptide_018 (human)
T8 peptide: GKQAAAQPHTEIPEG
Protocol: as §1, §2

[9] = molecular target: T9, Peptide_017 (human)
T9 peptide: DEGAPGKQAAAQPHT
Protocol: as §1, §2

[10] = molecular target: T10, Peptide_013 (human)
T10 peptide: SETSDAKSTPTAEDV
Protocol: as §1, §2

[11] = molecular target: T11, Peptide_030 (human)
T11 peptide: DGKTKIATPRGAAPP
Protocol: as §1, §2

[12] = molecular target: T12, Peptide_029 (human)
T12 peptide: KAKGADGKTKIATPR
Protocol: as §1, §2

[13] = molecular target: T13, Peptide_045 (human)
T13 peptide: REPKKVAVVRTPPKS
Protocol: as §1, §2

[14] = molecular target: T14, Peptide_044 (human)
T14 peptide: PTPPTREPKKVAVVR
Protocol: as §1, §2

[15] = molecular target: T15, Peptide_043 (human)
T15 peptide: RTPSLPTPPTREPKK
Protocol: as §1, §2

[16] = molecular target: T16, Peptide_041 (human)
T16 peptide: GSPGTPGSRSRTPSL
Protocol: as §1, §2

[17] = molecular target: T17, Peptide_038 (human)
T17 peptide: GEPPKSGDRSGYSSP
Protocol: as §1, §2

[18] = molecular target: T18, Peptide_059 (human)
T18 peptide: CGSKDNIKHVPGGGS
Protocol: as §1, §2

[19] = molecular target: T19, Peptide_057 (human)
T19 peptide: KLDLSNVQSKCGSKD
Protocol: as §1, §2

[20] = molecular target: T20, Peptide_055 (human)
T20 peptide: GGGKVQIINKKLDLS
Protocol: as §1, §2

[21] = molecular target: T21, Peptide_050 (human)
T21 peptide: APVPMPDLKNVKSKI
Protocol: as §1, §2

[22] = molecular target: T22, Peptide_049 (human)
T22 peptide: SRLQTAPVPMPDLKN
Protocol: as §1, §2

[23] = molecular target: T23, Peptide_048 (human)
T23 peptide: PSSAKSRLQTAPVPM
Protocol: as §1, §2

[24] = molecular target: T24, Peptide_070 (human)
T24 peptide: FKDRVQSKIGSLDNI
Protocol: as §1, §2

[25] = molecular target: T25, Peptide_068 (human)
T25 peptide: QVEVKSEKLDFKDRV
Protocol: as §1, §2

[26] = molecular target: T26, Peptide_060 (human)
T26 peptide: NIKHVPGGGSVQIVY
Protocol: as §1, §2

[27] = molecular target: T27, Peptide_082 (human)
T27 peptide: RHLSNVSSTGSIDMV
Protocol: as §1, §2

[28] = molecular target: T28, Peptide_081 (human)
T28 peptide: GDTSPRHLSNVSSTG
Protocol: as §1, §2

[29] = molecular target: T29, Peptide_080 (human)
T29 peptide: SPVVSGDTSPRHLSN
Protocol: as §1, §2

[30] = molecular target: T30, Peptide_079 (human)
T30 peptide: EIVYKSPVVSGDTSP
Protocol: as §1, §2

[31] = molecular target: T31, Peptide_078 (human)
T31 peptide: TDHGAEIVYKSPVVS
Protocol: as §1, §2

[32] = molecular target: T32, Peptide_076 (human)
T32 peptide: LTFRENAKAKTDHGA
Protocol: as §1, §2

[33] = molecular target: T33, Peptide_072 (human)
T33 peptide: SLDNITHVPGGGNKK
Protocol: as §1, §2

[34] = molecular target: T34, Peptide_084 (human)
T34 peptide: SIDMVDSPQLATLAD
Protocol: as §1, §2

[35] = molecular target: T35, Peptide_083 (human)
T35 peptide: VSSTGSIDMVDSPQL
Protocol: as §1, §2

B1: chimeric IgG clone 1A5 (antibody, V domains shown)
VH: EVQLQQSGAELVRPGASVKLSCTASGFNIKDSLIHWVKQRPEQGLEWIGWIDPEDGETKYAPKFQDKATKTADTSSNTAYLQLSSLTSEDTAIYYCASGEWDYWGQGTSVTVSS
VL: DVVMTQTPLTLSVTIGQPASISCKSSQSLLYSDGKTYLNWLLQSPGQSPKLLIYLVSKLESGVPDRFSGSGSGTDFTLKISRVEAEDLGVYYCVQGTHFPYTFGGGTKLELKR
notes: mouse-human chimeric IgG from HEK293
binding result [1]: no binding (tested: 5 ug/mL) | binding result [2]: no binding (tested: 5 ug/mL) | binding result [3]: no binding (tested: 5 ug/mL) | binding result [4]: no binding (tested: 5 ug/mL) | binding result [5]: no binding (tested: 5 ug/mL) | binding result [6]: no binding (tested: 5 ug/mL) | binding result [7]: no binding (tested: 5 ug/mL) | binding result [8]: no binding (tested: 5 ug/mL) | binding result [9]: no binding (tested: 5 ug/mL) | binding result [10]: no binding (tested: 5 ug/mL) | binding result [11]: no binding (tested: 5 ug/mL) | binding result [12]: no binding (tested: 5 ug/mL) | binding result [13]: no binding (tested: 5 ug/mL) | binding result [14]: no binding (tested: 5 ug/mL) | binding result [15]: no binding (tested: 5 ug/mL) | binding result [16]: no binding (tested: 5 ug/mL) | binding result [17]: no binding (tested: 5 ug/mL) | binding result [18]: no binding (tested: 5 ug/mL) | binding result [19]: no binding (tested: 5 ug/mL) | binding result [20]: no binding (tested: 5 ug/mL) | binding result [21]: no binding (tested: 5 ug/mL) | binding result [22]: no binding (tested: 5 ug/mL) | binding result [23]: no binding (tested: 5 ug/mL) | binding result [24]: binds | binding result [25]: no binding (tested: 5 ug/mL) | binding result [26]: no binding (tested: 5 ug/mL) | binding result [27]: no binding (tested: 5 ug/mL) | binding result [28]: no binding (tested: 5 ug/mL) | binding result [29]: no binding (tested: 5 ug/mL) | binding result [30]: no binding (tested: 5 ug/mL) | binding result [31]: no binding (tested: 5 ug/mL) | binding result [32]: no binding (tested: 5 ug/mL) | binding result [33]: no binding (tested: 5 ug/mL) | binding result [34]: no binding (tested: 5 ug/mL) | binding result [35]: no binding (tested: 5 ug/mL)
